Reference: patent US12421321B2, “Methods for treating fibrodysplasia ossificans progressiva” (Ashibio, Inc., priority 2023, dated 2025)
Where two headings read alike, the source gives them in different places.

Key:
[1] = in vivo; cited from earlier work
HT1080 cells = settings: cited from earlier work
pro-MMP-9 [2] = target: T1, pro-MMP-9 (Homo sapiens, UniProt P14780, Q279R/R574P); settings: cited from earlier work
T1 construct: Human MMP-9 protein (without)

MDA-MB-435 = MDA-MB-435 mouse models; cited from earlier work
[3] = tested on: fibrodysplasia ossificans progressiva; settings: in vivo; cited from earlier work
pro-MMP-9 [4] = target: T1, pro-MMP-9; settings: read-out: IC50, activation of MMP-9 from human pro-MMP-9; cited from earlier work
MMP-9 [5] = target: T2, MMP-9 (Homo sapiens, UniProt P14780); settings: cited from earlier work
Target sequence in this assay (P14780 107-707 limits assumed): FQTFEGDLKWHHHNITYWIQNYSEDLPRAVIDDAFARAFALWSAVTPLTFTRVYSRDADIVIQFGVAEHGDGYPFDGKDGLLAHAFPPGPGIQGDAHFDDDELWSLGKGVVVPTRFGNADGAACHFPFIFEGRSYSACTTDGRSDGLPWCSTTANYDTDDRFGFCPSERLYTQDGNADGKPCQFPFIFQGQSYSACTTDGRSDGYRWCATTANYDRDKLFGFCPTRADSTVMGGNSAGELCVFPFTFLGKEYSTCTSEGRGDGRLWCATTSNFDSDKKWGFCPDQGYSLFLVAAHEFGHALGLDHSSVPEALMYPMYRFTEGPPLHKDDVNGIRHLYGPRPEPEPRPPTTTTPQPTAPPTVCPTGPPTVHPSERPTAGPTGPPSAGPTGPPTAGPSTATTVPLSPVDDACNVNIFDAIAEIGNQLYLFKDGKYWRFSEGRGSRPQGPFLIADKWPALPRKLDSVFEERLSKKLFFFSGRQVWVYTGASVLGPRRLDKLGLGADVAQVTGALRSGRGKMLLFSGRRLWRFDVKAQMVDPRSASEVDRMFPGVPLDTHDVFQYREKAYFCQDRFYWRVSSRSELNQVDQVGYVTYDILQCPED

[6] = human, in vivo; cited from earlier work
[7] = Pooled safety analysis of double-blind placebo-controlled trials, subcutaneous andecaliximab monotherapy, non-oncologic conditions; format: in vivo, human; settings: for Participants with TEAE assessed as related to study drug: double-blind period
Method: A pooled analysis was conducted of all safety data from prior randomized, double-blind, placebo-controlled clinical trials where andecaliximab was administered subcutaneously as a monotherapy in non-oncologic conditions.
The pooled safety analysis consisted of 347 patients enrolled in double-blind (DB) placebo-controlled trials [age 18-78 yrs, median duration of treatment: DB=8 wk; DB+ open label extension (OLE)=17 wk; max 75 wk]. During the DB treatment period, treatment-emergent adverse event (TEAE) assessed as related to study drug occurred in 19 (17.8%) receiving 150 mg Q2W, 23 (20.2%) receiving 150 mg QW, 13 (22.4%) receiving 300 mg QW, none of those receiving 600 mg andecaliximab QW, and 20 participants (22.0%) received a placebo. Treatment-related TEAEs more common with andecaliximab compared with placebo (difference of >1 percentage point) were injection site erythema (2.1% versus 1.1%), headache (1.4% versus 0%), anemia (1.1% versus 0%), and injection site pain (1.1% versus 0%).

pro-MMP-9 [8] = target: T1, pro-MMP-9; settings: cited from earlier work; remark: listed apart in the source
[9] = tested on: mouse model of multiple sclerosis; settings: cited from earlier work
MMP-9 [10] = target: T2, MMP-9; settings: read-out: Ki against MMP-9, cited from earlier work
Target sequence in this assay (P14780 94-707): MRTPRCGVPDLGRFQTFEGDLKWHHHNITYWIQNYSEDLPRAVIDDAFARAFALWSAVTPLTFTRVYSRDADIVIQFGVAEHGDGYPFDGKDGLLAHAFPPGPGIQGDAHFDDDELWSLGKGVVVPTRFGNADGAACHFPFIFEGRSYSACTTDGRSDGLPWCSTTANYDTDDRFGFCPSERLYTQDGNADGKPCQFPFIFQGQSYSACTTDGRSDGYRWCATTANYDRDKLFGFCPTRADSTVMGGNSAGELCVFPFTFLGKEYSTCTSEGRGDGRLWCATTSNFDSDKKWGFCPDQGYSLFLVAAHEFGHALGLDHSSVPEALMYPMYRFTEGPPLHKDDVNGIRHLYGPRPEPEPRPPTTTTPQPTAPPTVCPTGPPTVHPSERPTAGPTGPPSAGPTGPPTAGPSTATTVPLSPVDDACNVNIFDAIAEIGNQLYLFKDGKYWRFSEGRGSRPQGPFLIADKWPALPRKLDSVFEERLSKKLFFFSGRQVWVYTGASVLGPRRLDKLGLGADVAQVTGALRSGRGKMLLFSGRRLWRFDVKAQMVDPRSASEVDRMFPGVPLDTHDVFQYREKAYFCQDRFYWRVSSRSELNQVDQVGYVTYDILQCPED

[11] = tested on: colorectal carcinoma xenograft; settings: surgical orthotopic xenograft model of colorectal carcinoma; cited from earlier work
heterotopic ossification = test: Inducible FOP mouse model (Acvr1 R206H, tamoxifen plus cardiotoxin), HO volume by micro-CT; format: in vivo, mice; settings: 30 mg/kg loading, then 15 mg/kg IP; micro CT 14-24 days post-injury
Method: FIG. 1 is a plot showing heterotopic ossification (HO) in an inducible mouse model of FOP having the R206H mutation (Acvr1[R206H]FIEx/+, Gt(ROSA26)SorCreERT2/+) treated with a control vehicle or AB0046 antibody (murine surrogate of andecaliximab that recapitulates MMP-9 inhibitory activity). The induction of disease occurred via tamoxifen (75 mg/kg×7 days, IP) and cardiotoxin injection on day 0 (10 μM, 100 μL) in the right gastrocnemius muscle. Dosing occurred at 30 mg/kg three days prior to injury (loading dose to address initial target-mediated drug disposition), then 15 mg/kg on days 0 and 3, or 15 mg/kg continuing twice per week after day […]. Ex vivo quantification of HO at the injury site was assessed using high-resolution micro CT and analyzed using 3D morphometry.
As described in Hatsell et al (Science Translational Medicine 2015), a knock-in transgenic model (Acvr1[R206H]FIEx/+; Gt(ROSA26)SorCreERT2/+) is used for these studies. […]
Faxitron images (medio-lateral view) of the collected entire right and left hindlimbs from all animals were performed (ex vivo) to document the presence of ectopic bone. Images were assessed qualitatively.
The effect of the anti-MMP-9 antibody, AB0046, on bone formation in the mouse model was evaluated ex vivo at the end of the in-life period. […]

[12] = pooled andecaliximab (placebo 0%)

T1 sequence (P14780 20-707 Q279R/R574P): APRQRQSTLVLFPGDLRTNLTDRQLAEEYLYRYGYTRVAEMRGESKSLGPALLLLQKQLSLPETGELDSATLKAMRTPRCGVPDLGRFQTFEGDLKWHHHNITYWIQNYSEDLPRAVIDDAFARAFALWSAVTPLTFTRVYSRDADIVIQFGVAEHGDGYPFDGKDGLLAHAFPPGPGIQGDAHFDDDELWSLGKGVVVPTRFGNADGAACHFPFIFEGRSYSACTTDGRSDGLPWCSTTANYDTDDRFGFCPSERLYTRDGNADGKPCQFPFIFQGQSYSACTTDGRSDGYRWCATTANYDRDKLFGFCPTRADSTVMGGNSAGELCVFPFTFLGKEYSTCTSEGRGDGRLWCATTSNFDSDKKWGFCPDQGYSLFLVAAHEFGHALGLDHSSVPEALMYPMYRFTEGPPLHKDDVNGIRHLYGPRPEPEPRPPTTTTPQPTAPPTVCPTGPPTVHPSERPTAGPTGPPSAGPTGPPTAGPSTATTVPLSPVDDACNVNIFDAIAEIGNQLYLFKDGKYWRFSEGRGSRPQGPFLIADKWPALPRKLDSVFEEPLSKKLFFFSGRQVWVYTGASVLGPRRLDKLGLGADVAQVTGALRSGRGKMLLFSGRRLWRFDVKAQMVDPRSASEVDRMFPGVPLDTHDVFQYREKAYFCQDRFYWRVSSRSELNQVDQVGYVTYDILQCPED

Molecule: COc1ccccc1Nc1nc(-c2sc(NC(C)=O)nc2C)cs1 [JNJ0966, N-(2-((2-methoxyphenyl)amino)-4′-methyl-[4,5′-bithiazol]-2′yl) acetamide]
- Blood-brain barrier penetration [1]: penetrates the blood-brain barrier
- Migration of HT1080 cells (HT1080 cells): inhibits the migration of HT1080 cells
- Activation of pro-MMP-9 (pro-MMP-9 [2]): prevents the activation of pro-MMP-9

Molecule: CCCc1cc(=O)nc(SCC(=O)Nc2ccc(OC(F)F)cc2)[nH]1 [N-[4-(difluoromethoxy)phenyl]-2-[(4-oxo-6-propyl-1H-pyrimidin-2-yl)sulfanyl]-acetamide]
- Tumor growth and metastasis (MDA-MB-435): reduced tumor growth and metastasis

Molecule: CC1(C)CCC(C)(C)c2cc(Cn3cccn3)c(/C=C/c3ccc(C(=O)O)cc3)cc21 [Palovarotene, palovarotene]
- Effect in mouse model of fibrodysplasia ossificans progressiva [3]: shown promise

Molecule: andecaliximab: anti-MMP-9 recombinant chimeric, humanized antibody; heavy chain SEQ ID NO: 35, light chain SEQ ID NO: 36
- IC50 (pro-MMP-9 [4]): 0.0082 nM
- Kd (MMP-9 [5]): 2 to 6.6 nM
- Safety and tolerability in clinical trials [6]: safe and well-tolerated
- Participants with TEAE assessed as related to study drug ([7]; 150 mg Q2W): 17.8%
- Participants with TEAE assessed as related to study drug ([7]; 150 mg QW): 20.2%
- Participants with TEAE assessed as related to study drug ([7]; 300 mg QW): 22.4%
- Participants with TEAE assessed as related to study drug ([7]; 600 mg QW): none
- Treatment-related TEAE: anemia [7, 12]: 1.1%
- Treatment-related TEAE: headache [7, 12]: 1.4%
- Treatment-related TEAE: injection site pain [7, 12]: 1.1%
- Treatment-related TEAE: injection site erythema ([7]; pooled andecaliximab (placebo 1.1%)): 2.1%
- Kd (pro-MMP-9 [8]): 0.008 to 0.043 nM

Molecule: α1(V)GlyΨ{PO2H—CH2} Val [mep14, 32,Flp15, 33] THPI
- Clinical severity and weight loss [9]: effectively reduced clinical severity and weight loss
- Ki (MMP-9 [10]; 25° Celsius): 90.6 nM
- Ki (MMP-9 [10]; 37° Celsius): 0.98 nM

B1: AB0046: murine surrogate of andecaliximab that recapitulates MMP-9 inhibitory activity; SEQ ID NO: 33 and 32 (antibody)
heavy: MGWSSIILFLVATATGVHSQVQLQQPGSVLVRPGASVKLSCTASGYTFTSYWMNWVKQRPGQGLEWIGEIYPISGRTNYNEKFKVKATLTVDTSSSTAYMDLNSLTSEDSAVYYCARSRANWDDYWGQGTTLTVSSAKTTPPSVYPLAPGSAAQTNSMVTLGCLVKGYFPEPVTVTWNSGSLSSGVHTFPAVLQSDLYTLSSSVTVPSSTWPSETVTCNVAHPASSTKVDKKIVPRDCGCKPCICTVPEVSSVFIFPPKPKDVLTITLTPKVTCVVVDISKDDPEVQFSWFVDDVEVHTAQTQPREEQFNSTFRSVSELPIMHQDWLNGKEFKCRVNSAAFPAPIEKTISKTKGRPKAPQVYTIPPPKEQMAKDKVSLTCMITDFFPEDITVEWQWNGQPAENYKNTQPIMDTDGSYFVYSKLNVQKSNWEAGNTFTCSVLHEGLHNHHTEKSLSHSPGK
light: MSSAQFLGLLLLCFQGTRCDIQMTQTTSSLSASLGDRVTISCSASQGISNYLNWYQQKPDGTFKLLIYYTSILHSGVPSRFSGSGSGTDYSLTISNLEPEDIATYYCQQYGWLPRTFGGGTKLEIKRADAAPTVSIFPPSSEQLTSGGASVVCFLNNFYPKDINVKWKIDGSERQNGVLNSWTDQDSKDSTYSMSSTLTLTKDEYERHNSYTCEATHKTSTSPIVKSFNRNEC
- Tumor growth and metastasis [11]: reduced tumor growth and metastasis
- Heterotopic ossification (HO) at the injury site versus IgG control (heterotopic ossification): reduced HO in mice
